{"source": "paper PMC7919418", "key": {"[1]": {"molecular_target": "T1, SFiNX[wild type] (Panx-Nxf2-Nxt1-Ctp) (Drosophila melanogaster, UniProt Q9W2H9;Q9VV73;Q9V3H8;Q24117 263-541;541-841;1-133;1-89)", "T1 sequence (Q9W2H9 263-541, chain 1 of 3)": "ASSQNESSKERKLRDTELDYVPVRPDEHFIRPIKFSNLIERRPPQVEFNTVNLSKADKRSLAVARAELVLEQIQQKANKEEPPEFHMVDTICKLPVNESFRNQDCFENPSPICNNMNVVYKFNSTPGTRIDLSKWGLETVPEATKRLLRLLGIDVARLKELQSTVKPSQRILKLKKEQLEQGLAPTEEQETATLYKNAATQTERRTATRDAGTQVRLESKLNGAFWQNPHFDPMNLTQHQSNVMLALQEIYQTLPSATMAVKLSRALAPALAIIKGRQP", "T1 sequence (Q9VV73 541-841, chain 2 of 3)": "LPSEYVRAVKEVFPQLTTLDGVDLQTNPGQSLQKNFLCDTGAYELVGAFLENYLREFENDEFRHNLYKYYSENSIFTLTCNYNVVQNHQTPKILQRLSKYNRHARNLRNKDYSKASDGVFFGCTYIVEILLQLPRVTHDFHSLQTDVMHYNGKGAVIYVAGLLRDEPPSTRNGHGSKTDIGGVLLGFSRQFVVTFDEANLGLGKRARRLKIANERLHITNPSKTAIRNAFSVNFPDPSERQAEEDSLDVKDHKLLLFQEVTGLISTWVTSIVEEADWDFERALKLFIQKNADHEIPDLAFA", "T1 sequence (Q24117 whole entry, chain 4 of 3)": "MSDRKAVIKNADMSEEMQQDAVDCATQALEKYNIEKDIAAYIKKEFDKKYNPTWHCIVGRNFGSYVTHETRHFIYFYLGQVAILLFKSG", "experiment": "EMSA"}, "[2]": {"molecular_target": "T1, SFiNX[wild type] (Panx-Nxf2-Nxt1-Ctp)", "experiment": "EMSA", "remark": "listed apart in the source"}}, "note": "Like-named read-outs stand apart in the source and are kept apart here.", "data": [{"binder": "CUCAUCUUGGUCGUACGCGGAAUAGUUUAAACUGU (ssRNA)", "note": "[35-nt ssRNA]", "values": [{"measurement": "binding result", "setting": "[1]", "result": "binds"}]}, {"binder": "35-bp dsRNA (dsRNA) RNA 1: CUCAUCUUGGUCGUACGCGGAAUAGUUUAAACUGU RNA 2: ACAGUUUAAACUAUUCCGCGUACGACCAAGAUGAG", "values": [{"measurement": "binding result", "setting": "[2]", "result": "binds"}]}, {"binder": "25-bp dsDNA (dsDNA) DNA 1: ACGCTCAAGTCAGAGGTGGCGAAAC DNA 2: GTTTCGCCACCTCTGACTTGAGCGT", "values": [{"measurement": "binding result", "setting": "[2]", "result": "binds"}]}]}
